Data on 8 molecules can be found in paper PMC8036718, “Two Be or Not Two Be: The Nuclear Autoantigen La/SS-B Is Able to Form Dimers and Oligomers in a Redox Dependent Manner” (International Journal of Molecular Sciences, 2021).

To fix the notation:
T1: full-length human La protein (La 1-408) (human, UniProt P05455 1-408)
T1 construct: Cloned into pET28b; also called La/SS-B; wild-type La protein
T1 sequence (looked up): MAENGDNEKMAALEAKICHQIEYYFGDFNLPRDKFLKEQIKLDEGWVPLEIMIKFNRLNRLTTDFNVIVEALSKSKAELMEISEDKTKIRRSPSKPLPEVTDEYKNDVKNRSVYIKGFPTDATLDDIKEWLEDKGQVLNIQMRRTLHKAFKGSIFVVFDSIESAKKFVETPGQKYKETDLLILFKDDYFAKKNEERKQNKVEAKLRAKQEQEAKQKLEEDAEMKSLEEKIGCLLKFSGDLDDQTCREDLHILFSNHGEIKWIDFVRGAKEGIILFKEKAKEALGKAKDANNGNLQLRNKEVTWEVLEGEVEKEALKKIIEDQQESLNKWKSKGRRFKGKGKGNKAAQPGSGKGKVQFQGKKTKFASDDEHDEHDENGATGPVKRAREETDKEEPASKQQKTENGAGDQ

B1: La 1-371 (domain or fragment, human, UniProt P05455 1-371, looked up)
chain: MAENGDNEKMAALEAKICHQIEYYFGDFNLPRDKFLKEQIKLDEGWVPLEIMIKFNRLNRLTTDFNVIVEALSKSKAELMEISEDKTKIRRSPSKPLPEVTDEYKNDVKNRSVYIKGFPTDATLDDIKEWLEDKGQVLNIQMRRTLHKAFKGSIFVVFDSIESAKKFVETPGQKYKETDLLILFKDDYFAKKNEERKQNKVEAKLRAKQEQEAKQKLEEDAEMKSLEEKIGCLLKFSGDLDDQTCREDLHILFSNHGEIKWIDFVRGAKEGIILFKEKAKEALGKAKDANNGNLQLRNKEVTWEVLEGEVEKEALKKIIEDQQESLNKWKSKGRRFKGKGKGNKAAQPGSGKGKVQFQGKKTKFASDDEHD
notes: La protein, human, residues 1-371 (holds the Dim domain)
B2: mono cysteine mutant of La protein (La_C18A) (natural protein, human, UniProt P05455 1-408, looked up)
chain: T1 sequence (looked up) with C18A
notes: La protein, human, with Cys18 changed to alanine; Runs as 50 kDa La protein
B3: double cysteine mutant of La protein (La_C232A_C245A) (natural protein, human, UniProt P05455 1-408, looked up)
chain: T1 sequence (looked up) with C232A, C245A
notes: La protein, human, with Cys232 and Cys245 changed to alanine
B4: La 1-245 (domain or fragment, human, UniProt P05455 1-245, looked up)
chain: MAENGDNEKMAALEAKICHQIEYYFGDFNLPRDKFLKEQIKLDEGWVPLEIMIKFNRLNRLTTDFNVIVEALSKSKAELMEISEDKTKIRRSPSKPLPEVTDEYKNDVKNRSVYIKGFPTDATLDDIKEWLEDKGQVLNIQMRRTLHKAFKGSIFVVFDSIESAKKFVETPGQKYKETDLLILFKDDYFAKKNEERKQNKVEAKLRAKQEQEAKQKLEEDAEMKSLEEKIGCLLKFSGDLDDQTC
notes: La protein, human, residues 1-245 (lacks the Dim domain)
B5: La 239-408 (domain or fragment, human, UniProt P05455 239-408, looked up)
chain: DLDDQTCREDLHILFSNHGEIKWIDFVRGAKEGIILFKEKAKEALGKAKDANNGNLQLRNKEVTWEVLEGEVEKEALKKIIEDQQESLNKWKSKGRRFKGKGKGNKAAQPGSGKGKVQFQGKKTKFASDDEHDEHDENGATGPVKRAREETDKEEPASKQQKTENGAGDQ
B6: LaN, C-terminally truncated La fragment aa1-192 (domain or fragment, human, UniProt P05455 1-192, looked up)
chain: MAENGDNEKMAALEAKICHQIEYYFGDFNLPRDKFLKEQIKLDEGWVPLEIMIKFNRLNRLTTDFNVIVEALSKSKAELMEISEDKTKIRRSPSKPLPEVTDEYKNDVKNRSVYIKGFPTDATLDDIKEWLEDKGQVLNIQMRRTLHKAFKGSIFVVFDSIESAKKFVETPGQKYKETDLLILFKDDYFAKK
notes: La protein, human, residues 1-192 (La motif plus RRM1 domain); also called La 1-192
B7: LaC, C-terminal La fragment aa194-408 (domain or fragment, human, UniProt P05455 194-408, looked up)
chain: EERKQNKVEAKLRAKQEQEAKQKLEEDAEMKSLEEKIGCLLKFSGDLDDQTCREDLHILFSNHGEIKWIDFVRGAKEGIILFKEKAKEALGKAKDANNGNLQLRNKEVTWEVLEGEVEKEALKKIIEDQQESLNKWKSKGRRFKGKGKGNKAAQPGSGKGKVQFQGKKTKFASDDEHDEHDENGATGPVKRAREETDKEEPASKQQKTENGAGDQ
B8: La 278-408 (domain or fragment, human, UniProt P05455 278-408, looked up)
chain: KAKEALGKAKDANNGNLQLRNKEVTWEVLEGEVEKEALKKIIEDQQESLNKWKSKGRRFKGKGKGNKAAQPGSGKGKVQFQGKKTKFASDDEHDEHDENGATGPVKRAREETDKEEPASKQQKTENGAGDQ

Positions count from the first letter of the chain named.

Data set [1] deals with T1, full-length human La protein (La 1-408). Kind of data set: SPR; full-length human La protein (La1-408) covalently linked to the sensor chip; BSA-coupled chip as control; La 1-408 or deletion mutants as analytes. The following applies: both partners purified.
Data set [2] concerns the molecule itself. Kind of data set: non-reducing SDS-PAGE and immunoblotting; purified La proteins as isolated (untreated) or treated with 2 mM CuSO4 (oxidized), sample buffer without ß-mercaptoethanol; blots with anti-La mAb SW5 or 7B6; shows only species held by disulfide bridges.
Data set [3] addresses B7. Kind of data set: far-Western, overlay or dot blot; His-tagged La fragments separated by SDS-PAGE and blotted; after blocking the membrane was incubated with unlabeled full-length La protein (or LaN); bound probe detected with the anti-La mAb SW5 (Figure 5C also with 5B9). The following applies: both partners purified.
The target in data set [4] is T1, full-length human La protein (La 1-408). The description is as above. The following applies: both partners purified.

Consider B1, for which the binding result in data set [1] was “binds”.

As for B2, the binding result in data set [2] was “binds”.

Take B3: the “stoichiometry N” value in data set [2] came out at 2.

Consider B4, for which the binding result in data set [1] was “binds”.

In the case of B5, the binding result in data set [1] is reported as “binds”.

B6: the binding result in data set [3] is on record as “binds”.

In the case of B7, the binding result in data set [4] was “binds”.

In the case of B8, in data set [1], the binding result is recorded as “binds”.
